B1: p115-PH (PH domain of p115RhoGEF) (domain or fragment)
chain: KLVHEGPLTWRVTKDKAVEVHVLLLDDLLLLLQRQDERLLLKSHSRTLTPTPDGKTMLRPVLRLTSAMTREVATDHKAFYVLFTWDQEAQIYELVAQTVSERKNWCALITETAG
B2: PRG-PH (non-fluorescent PH domain of PDZRhoGEF) (domain or fragment)
chain: VKQTENRHRLEGYQKRLDATALERASNPLAAEFKSLDLTTRKMIHEGPLTWRISKDKTLDLHVLLLEDLLVLLQKQDEKLLLKCHSKTAVGSSDSKQTFSPVLKLNAVLIRSVATDKRAFFIICTSKLGPPQIYELVALTSSDKNTWMELLEEAVRNATRHP
B3: PH domain from p190RhoGEF (domain or fragment)
chain: TLLYDGLVYWKTATGRFKDILALLLTDVLLFLQEKDQKYIFAAVDQKPSVISLQKLIAREVANEERGMFLISASSAGPEMYEIHTNSKEERNNWMRRIQQAVE
B4: PH domain from LARG (domain or fragment)
chain: KMIHEGPLVWKVNRDKTIDLYTLLLEDILVLLQKQDDRLVLRCHSKILASTADSKHTFSPVIKLSTVLVRQVATDNKALFVISMSDNGAQIYELVAQTVSEKTVWQDLICRMAA

The binders below were run against YFP-RhoA·GTPγS (UniProt P61586 1-193) (assay: FRET; competition with CFP-PRG-PH).
Chain of YFP-RhoA·GTPγS (P61586 whole entry): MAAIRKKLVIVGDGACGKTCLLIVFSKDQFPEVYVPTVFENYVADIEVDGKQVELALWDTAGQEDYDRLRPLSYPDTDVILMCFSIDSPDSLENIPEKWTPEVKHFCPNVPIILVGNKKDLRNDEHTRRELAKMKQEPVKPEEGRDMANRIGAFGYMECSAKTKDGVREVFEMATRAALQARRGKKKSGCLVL

In order of rising IC50:
1. B2  3.4 µM
2. B3  7.2 µM
3. B4  10.5 µM
4. B1  170 µM

Reference: PMC5988292 (2018)
